From US20240342298A1, “METHODS OF TREATING TUMORS BY USING MOLECULAR CONSTRUCT” (Immunwork Inc., priority 2023, published 2024)

Columns and labels:
H929 cells = experiment: alamarBlue cell viability assay, H929 cells; format: cell-based, human; conditions: even at doses >20 μM
Protocol: (§1) Briefly, H929, U266-CD38^−, MM.1S, and Daudi cells were seeded at 5,000 cells/well in 96-well plates and co-cultured with fresh medium containing different test articles with the indicated concentrations at 37° C. for 5 hours, 1 day, 3 days, or 5 days. The viabilities of the cells were determined by alamarBlue™ cell viability reagent. About 10 μl alamarBlue™ cell viability reagent was added to the cells with a final concentration of 10% v/v, followed by incubating at 37° C. for 1.5 hours. The fluorescence was measured on a microplate reader in arbitrary fluorescent units following excitation at 560 nm and emission at 590 nm.
(§2) H929 cells were incubated for 5 hours, 1 day, 3 days, or 5 days (FIGS. 12A-12D), and MM.1S, U266-CD38-, and Daudi cells were incubated for 5 days (FIGS. 12E-12G). Then, cell viability was determined.

human CD38 = biological target: T1, human CD38 (Homo sapiens, UniProt P28907); experiment: cell-based ELISA binding to human CD38-overexpressing 293T cells
T1 construct: The cDNA of full-length human CD38 was cloned into pCDH-CMV-MCS-Ef1α-Puro expression vector; expressed in transfected cells; host or cells: HEK293T (lentiviral transduction with pCDH-CMV-CD38, puromycin selection)
Protocol: The cDNA of full-length human CD38 was cloned into pCDH-CMV-MCS-Ef1α-Puro expression vector to generate lentiviral-based CD38-expressing plasmid, pCDH-CMV-CD38. Lentivirus was packaged by co-transfecting pCDH-CMV-CD38, pCMV-VSV-G, and pCMV8R8.91 into HEK293T cells. Human CD38-overexpressing HEK293T cells were transduced with lentivirus infection and cultured with 1 μg/mL puromycin three days post-infection.

MM.1S cells = experiment: alamarBlue cell viability assay, MM.1S cells; format: cell-based, human; conditions: even at doses >20 μM
Protocol: as §1, §2

U266-CD38- cells = experiment: alamarBlue cell viability assay, U266-CD38- cells; format: cell-based; conditions: 5 days, FIG. 12F
Protocol: as §1, §2

B1: 2-chain (anti-CD38 scFv)-hIgG1.Fc-(Gly)3-BM fusion protein: dimer of (anti-CD38 scFv)-hIgG1.Fc-(Gly)3-BM, SEQ ID NO: 12; scFv VL and VH derived from daratumumab (protein)
chain: EIVLTQSPATLSLSPGERATLSCRASQSVSSYLAWYQQKPGQAPRLLIYDASNRATGIPARFSGSGSGTDFTLTISSLEPEDFAVYYCQQRSNWPPTFGQGTKVEIKGSTSGSGKPGSGEGSTKGEVQLLESGGGLVQPGGSLRLSCAVSGFTFNSFAMSWVRQAPGKGLEWVSAISGSGGGTYYADSVKGRFTISRDNSKNTLYLQMNSLRAEDTAVYFCAKDKILWFGEPVFDYWGQGTLVTVSSGGGASDKTHTCPPCPAPELLGGPSVFLFPPKPKDTLMISRTPEVTCVVVDVSHEDPEVKFNWYVDGVEVHNAKTKPREEQYNSTYRVVSVLTVLHQDWLNGKDYKCKVSNKALPAPIEKTISKAKGQPREPQVYTLPPSRDELTRNQVSLTCLVKGFYPSDIAVEWESNGQPENNYKTTPPVLDSDGSFFLYSKLTVDKSRWQQGNVFSCSVMHEALHNHYTQKSLSLSPGGGGACPGHA
modifications: homodimer
notes: scFv VL and VH derived from daratumumab
For B1, the “effect of cell death” value (H929 cells) was “no effect of cell death”, the EC50 (human CD38) was 0.84 nM and the “effect of cell death” value (MM.1S cells) was “no effect of cell death”. The killing effect (U266-CD38- cells) was “did not possess any killing effect”.
